Data: patent US20140287419A1, “Compositions Having Dicamba Decarboxylase Activity and Methods of Use” (priority 2013, published 2014)

How the values were obtained:
[1] = 14C assay with purified protein (14CO2 captured on Ca(OH)2 filter paper); assay type: biochemical; conditions: [14C]-carboxyl-labeled dicamba
[2] = Detection of 2,5-DCA product by toluene capture or head-space GC/MS; assay type: biochemical; conditions: purified protein, toluene capturing
Experimental: Alternatively, dicamba decarboxylase activity can be monitored by measuring decarboxylation products other than CO2 using product detection methods. The decarboxylation product of dicamba, 2,5-dichloro anisole or 2,5-DCA (FIG. 1C), is a volatile compound with a flash point of 21° C. To capture this volatile compound for detection, 140 ul of toluene solution is added on top of 1 ml reaction mixture to form a trapping layer in a 1.5 ml eppendorf tube. […] The reaction is kept still at room temperature overnight before being vortex mixed and centrifuged at 14,000 rpm for 15 minutes. The top toluene phase is carefully removed using a micropipette and transferred into a 12×32 mm polypropylene vial (Vial 11 mm) from MicroLiter Analytical Supplies, Inc. (catalog number 11-5300-100). The vial is sealed with Crimp seal (11 mm with FEP/Nat Rubber) from MicroLiter Analytical Supplies, Inc. (catalog number 11-0020A) using a E-Z Crimper™ 11 mm from Wheaton Inc. 1 ul of the toluene mixture is taken from the sealed vials and injected in splitless mode into a GC/MS system for sample analysis (Agilent GC/MS system with a 6890A GC, a 5973N MSD and a CTC CombiPAL auto-sampler or with a 7890A GC, a 5975C MSD and an Agilent GC Sampler 80 auto-sampler). The GC parameters are: Agilent DB-5MS column (30 m length, 0.25 mm diameter, 0.25 um film) or equivalent; The GC inlet temperature, 250° C.; Carry gas, helium in constant flow mode (1.2 mL/min); The GC oven temperature program, initial temperature at 70° C. for 1 min, ramping to 200° C. at 15° C./min, and then ramping to 250° C. at 30° C./min. MS data acquisition is done in SIM (selected ion monitoring) mode, monitoring the positive ion at M/Z 176 for the molecular ion of […]. The solvent delay for MS acquisition is set at 4 min. Another method for detection of 2,5-DCA is a head-space GC/MS method. Briefly, reaction mixtures in 500 ul reaction volume are prepared in 1.5 ml×32 mm glass vials (Microliter Analytical Supplies, Cat#11-1200) for head space analysis. Glass vials are sealed with magnetic cap from MicroLiter Analytical Supplies, Inc. (catalog number 11-0030AT) using a E-Z Crimper™ 11 mm from Wheaton Industries Inc. The reaction is carried out at room temperature for various amount of time and stopped by heating at 95° C. for 5 min. The reaction vial is transferred to a agitator for incubation at 80° C. for 5 min at 500 rpm. With a syringe preheated at 80° C., 1000 uL of head space is injected with sample fill speed at 100 uL/sec. GC/MS parameters for headspace analysis are the same as for liquid sample analysis.

[3] = Dicamba decarboxylation activity of computationally designed protein variants; conditions: native protein or designed variant versus parent
[4] = Detection of 4-chloro-3-methoxy phenol product by LC-MS/MS; assay type: biochemical; conditions: purified protein
Experimental: The decarboxylated and chloro hydrolyzed product, 4-chloro-3-methoxy phenol (FIG. 1D), is measured using a LC-MS/MS analytical procedure. […] 10 ul is removed from the reaction mixture and mixed with 90 ul pre-chilled methanol followed by centrifugation at 14,000 rpm for 15 min at 4° C. 10 ul of the supernatant is then transferred into 170 ul ddH2O to achieve 5% methanol solution for injection. 50 ul of the prepared sample is injected into a 4000 Q Trap LC-MS/MS system for sample analysis. LC-MS/MS parameters are: Mobile Phase A, 2 mM ammonium acetate in water; Mobile Phase B, 2 mM ammonium acetate in methanol; Column, Aquasil, 100×2.1 mm, 3 μm, C18 column; Flow Rate, 0.6 ml/min. The MS/MS fragment 157/142 which is common to 4-chloro-3-methoxy phenol, 2-chloro-5-methoxy phenol, and 3-chloro-5-methoxy phenol is monitored at a retention time of 2.88 min.

[5] = Detection of 2,5-DCP product by GC/MS; assay type: biochemical; conditions: purified protein
Experimental: The decarboxylated and demethylated product of dicamba, 2,5-dichloro phenol or 2,5-DCP (FIG. 1E) is measured using a GC/MS analytical procedure with either liquid injection after liquid/liquid extraction using toluene as the extraction solvent or gas injection using head space method. The head space sample analysis is carried out on an Agilent GC/MS system with a 6890A GC, a 5973N MSD and a CTC CombiPAL auto-sampler or with a 7890A GC, a 5975C MSD and an Agilent GC Sampler 80 auto-sampler with Phenomenex ZB-MultiResidue-1 column (30 m length, 0.25 mm diameter, 0.25 um film) or equivalent. GC/MS parameters are: GC inlet temperature, 200° C.; Carry gas, helium in constant flow mode (1.2 mL/min); Oven temperature program, 70° C. for 1 min and then ramp to 275° C. at 40° C./min. […] The reaction vial is transferred to a agitator for incubation at 90° C. for 4 min at 500 rpm. With a syringe preheated at 110° C., 1000 uL of head space is injected with sample fill speed at 100 uL/sec. A 2-mm diameter liner is used in sample inlet. The MS data acquisition is done in SIM (selected ion monitoring) mode. The positive ion at M/Z 162 for the molecular ion of 2,-5-DCP is monitored at retention time of 4.06 min. Solvent delay for MS acquisition is set at 3 min. GC/MS parameters for liquid sample analysis are the same as those for head space analysis, except that the volume of liquid injection is 1 uL.

[6] = 14C assay with IPTG-induced recombinant E. coli cells (14CO2 capture from [14C]-carboxyl-labeled dicamba); conditions: E. coli cell assay, 108 sequences tested

Row | Molecule | CO2 product [1] | 2,5-DCA product [2] | Dicamba Decarboxylase Activity [3] | 4-chloro-3-methoxy phenol product [4] | 2,5-DCP product [5] | decarboxylation activity of dicamba [6]
1 | SEQ ID NO:121: Design variant of SEQ ID NO: 100 (protein, Dicamba decarboxylase variant clone DC.12.014) MAIIDCHGHYTTTPKGVEDYRNAQKAAVAKDPSFKGEKGQVVVSDDEIRESIENNQLKMQRERGTDLTIFSPRWDAGGHHIGNEYTSQFWTEHQNDLIRRVCDLFPKNFAPVAQLPQSPGVDPAKSVPEIVRTVEQMGFIGINLNPDPSGGYWKDTSLADRAFYPIYEKMVEYDIPAMIHPRLACNACFHTGLSVGLGADTTGFQQLIMSDVFKDFPSLKIIIPHGGGAVPYHWGRFRGLMQDQGYAPLEESALKNIYFDTCVYHQRGIDLLLDIVPTQNILFASEMIGAVRGIDPETGHNFDDTKRYIDNNTALNAEEKAMIFEGNARRVFSRLKTD | not detected | detected | have dicamba decarboxylase activity | not detected | not detected | –
2 | SEQ ID NO:1: 2,6-Dihydroxybenzoate Decarboxylase, Rhizobium sp. MTP-10005 (protein, listed as Rhizobium sp.) MAQGKVALEEHFAIPETLQDSAGFVPGDYWKELQHRLLDIQDTRLKLMDAHGIETMILSLNAPAVQAIPDRRKAIEIARRANDVLAEECAKRPDRFLAFAALPLQDPDAATEELQRCVNDLGFVGALVNGFSQEGDGQTPLYYDLPQYRPFWGEVEKLDVPFYLHPRNPLPQDSRIYDGHPWLLGPTWAFAQETAVHALRLMASGLFDEHPRLNIILGHMGEGLPYMMWRIDHRNAWVKLPPRYPAKRRFMDYFNENFHITTSGNFRTQTLIDAILEIGADRILFSTDWPFENIDHASDWFNATSIAEADRVKIGRTNARRLFKLDGA | detected | detected | native dicamba decarboxylase activity | detected | detected | showed decarboxylation activity of dicamba
3 | SEQ ID NO:118: Design variant of SEQ ID NO: 95 (protein, Dicamba decarboxylase variant clone DC.5.033) MAKKPRIDMHSHFFPRISEQEAAKFDANHAPWLQVSAKGDTGSIMMGKNNFQPVYQALWDPAFRIEEMDAQGVDVQVTCATPVMFGYTWEANKAAQWAERMNDFALEFAAHNPQRIKVLAQVPLQDLDLACKEASRAVAAGHLGIQIGNHLGDKDLDDATLEAFLTHCANEDIPILVHGTDMMGGQRMKKWGLPWLVALAAEVQLAILSLILSGAFERIPKSLKICFSHGGGSFAFLLGLVDEAWRHVDIVREDCPRPPSEYVDRFFVDSVGNPGALELLVSVMGEDRVMLGSDYPHTTGEQKIGGLVLSSNLGESAKDKIISGNASKFFNINV | not detected | detected | have dicamba decarboxylase activity | not detected | not detected | –
4 | SEQ ID NO:119: Design variant of SEQ ID NO: 95 (protein, Dicamba decarboxylase variant cloneDC.5.034) MAKKPRIDMHSHFFPRISEQEAAKFDANHAPWLQVSAKGDTGSIMMGKNNFQPVYQALWDPAFRIEEMDAQGVDVQVTCATPVMFGYTWEANKAAQWAERMNDFALEFAAHNPQRIKVLAQVPLQDLDLACKEASRAVAAGHLGIQIGNHLGDKDLDDATLEAFLTHCANEDIPILVHGWDMMGGQRMKKWGLYWLVAHHAEVQLAILSLILSGAFERIPKSLKICFSHGGGSFAFTLGWVDEAWRHVDIVREDCPRPPSEYVDRFFVDSVGNPGALELLVSVMGEDRVMLGSDYPLTTGEQKIGGLVLSSNLGESAKDKIISGNASKFFNINV | not detected | detected | have dicamba decarboxylase activity | not detected | not detected | –
5 | SEQ ID NO:120: Design variant of SEQ ID NO: 100 (protein, Dicamba decarboxylase variant clone DC.12.002) MAIIDCHGHYTTTPKGVETYRNAQKAAVAKDPSFKYEKGQVVVSDDEIRESIENNQLKMQRERGTDLTIFSPRSTAGGHHIGNEYTSQFWTEHQNDLIRRVCDLFPKNFAPVAQLPQSPGVDPAKSVPEIVRTVEQMGFIGINLNPDPSGGYWKDTSLADRAFYPIYEKMVEYDIPAMIHPRNACNDCFHTTGSHALGADTTGFQQLIMSDVFKDFPSLKIIIPHGGGAVPYHWGRFRGLMQDQGYAPLEESALKNIYFDTCVYHQRGIDLLLDIVPTQNILFASEMIGAVRGIDAETGHNFDDTKRYIDNNTALNAEEKAMIFEGNARRVFSRLKTD | not detected | detected | have dicamba decarboxylase activity | not detected | not detected | –
6 | SEQ ID NO:122: Design variant of SEQ ID NO: 100 (protein, Dicamba decarboxylase variant clone DC.12.103) MAIIDCHGHYTTTPKGVEDYRNAQKAAVAKDPSFKGEKGQVVVSDDEIRESIENNQLKMQRERGTDLTIFSPRSTAGGHHIGNEYTSQFWTEHQNDLIRRVCDLFPKNFAPVAQLPQSPGVDPAKSVPEIVRTVEQMGFIGINLNPDPSGGYWKDTSLADRAFYPIYEKMVEYDIPAMIHPRNACNDCFHTTGSHALGADTTGFQQLIMSDVFKDFPSLKIIIPHGGGAVPYHWGRFRGLMQDQGYAPLEESALKNIYFDTCVYHQRGIDLLLDIVPTQNILFASDMIGAVRGIDPETGHNFDDTKRYIDNNTALNAEEKAMIFEGNARRVFSRLKTD | not detected | detected | have dicamba decarboxylase activity | not detected | not detected | –
